B1: ALDH8A1 (parent)
chain: WSSRSPQERSRVLNQVADLLEQSL
B2: FAM164A (parent)
chain: YDPDYIQCPYCQRRFNENAADRHI

Variants of: B1
Assay: protein stability index of a GFP-peptide fusion (GPS, HEK-293T) (PSI 1-6); higher = more stable
Conditions: c terminus: a fixed tail appended
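Further: lentivirally expressed fusions sorted by FACS into six bins by GFP to DsRed ratio, PSI derived from sequencing read proportions per bin multiplied by bin number.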

| Variant | protein stability index |
| --- | --- |
| L24K | 3.94 |
| S5H | 2.14 |
| S5G | 2.05 |
| S5I | 2.4 |
| S5L | 2.74 |
| S5E | 2.88 |
| S5M | 2.54 |
| R11G | 2.91 |
| R11N | 2.48 |
| R11C | 2.18 |
| R11H | 1.89 |
| R11V | 2.68 |
| R11M | 1.55 |
| R11A | 3.4 |
| R11L | 2.15 |
| L20E | 4.43 |
| L20H | 3.86 |
| L20F | 2.75 |
| L20R | 3.5 |
| L20Y | 3.37 |
| L20W | 2.82 |
| L20A | 3.59 |
| S10N | 2.29 |
| S10G | 3.8 |
| S10A | 2.41 |

| Variant | protein stability index |
| --- | --- |
| S10L | 2.25 |
| S10V | 2.05 |
| A17D | 3.87 |
| A17I | 2.42 |
| A17T | 3.1 |
| A17E | 3.88 |
| Q7M | 2.23 |
| Q7G | 2.7 |
| Q7N | 2.81 |
| Q7R | 2.62 |
| Q7Y | 1.79 |
| Q7L | 1.91 |
| Q7K | 2.61 |
| Q7C | 2.24 |
| E8K | 2.04 |
| E8R | 2.88 |
| E8L | 2.1 |
| E8M | 2.19 |
| E8N | 2.23 |
| E8F | 2.01 |
| E8A | 2.31 |
| R9I | 2.44 |
| R9A | 2.59 |
| R9L | 2.48 |
| R9E | 3.38 |

| Variant | protein stability index |
| --- | --- |
| R9W | 2.22 |
| R9S | 2.87 |
| R9D | 3.25 |
| R9V | 2.37 |
| S3V | 2.78 |
| S3N | 2.35 |
| S3T | 2.64 |
| S3W | 1.8 |
| S3M | 2.27 |
| S3F | 1.88 |
| V16P | 3.62 |
| V16A | 3.86 |
| V16W | 2.26 |
| V16N | 4.2 |
| V16G | 4.12 |
| V16K | 3.71 |
| V16C | 2.98 |
| V16T | 4.18 |
| V16L | 2.24 |
| P6S | 2.8 |
| P6C | 2.19 |
| P6V | 2.39 |
| P6Q | 2.85 |
| P6K | 2.42 |
| L13D | 3.81 |

| Variant | protein stability index |
| --- | --- |
| L13T | 3.5 |
| L13M | 2.63 |
| L13N | 3.54 |
| L13P | 4.09 |
| L13E | 3.49 |
| L13Y | 2.6 |
| L13W | 2.55 |
| L13Q | 3.85 |
| L13K | 3.53 |
| W1M | 3.06 |
| W1T | 3.39 |
| W1D | 3.69 |
| W1L | 2.91 |
| W1C | 2.78 |
| W1N | 3.61 |
| W1K | 3.18 |
| W1V | 3.11 |
| L19Y | 3.15 |
| L19F | 2.23 |
| L19M | 2.52 |
| L19N | 4.23 |
| L19W | 2.24 |
| L19G | 4.16 |
| L19A | 3.18 |
| L19I | 2.31 |

| Variant | protein stability index |
| --- | --- |
| Q22Y | 2.33 |
| Q22T | 2.53 |
| Q22F | 1.93 |
| Q22N | 2.61 |
| Q22K | 2.27 |
| Q22G | 2.98 |
| Q22S | 3.1 |
| Q22V | 1.91 |
| Q15W | 1.79 |
| Q15L | 2.36 |
| N14S | 2.58 |
| N14H | 2.17 |
| N14W | 1.95 |
| N14E | 3.24 |
| V12P | 4.23 |
| V12G | 3.48 |
| V12L | 2.06 |
| V12W | 1.73 |
| V12H | 3.05 |
| D18F | 1.48 |
| D18T | 2.02 |
| D18Y | 1.81 |
| D18N | 2.22 |
| R4Q | 3.04 |
| R4P | 2.64 |

| Variant | protein stability index |
| --- | --- |
| R4T | 2.62 |
| R4W | 2.68 |
| R4I | 2.64 |
| R4G | 2.52 |
| S23L | 2.11 |
| S23T | 1.94 |
| S23A | 2.31 |
| S23N | 3.45 |
| S23Y | 1.72 |
| S23R | 3.64 |
| S23M | 2.3 |
| E21V | 2.17 |
| E21G | 2.24 |
| E21Y | 1.71 |
| E21Q | 2.38 |
| E21M | 2 |
| S2G | 2.5 |
| S2K | 2.48 |
| S2D | 2.8 |
| S2P | 2.92 |

Variants of: B2
Assay: as above
Conditions: c terminus: a fixed tail appended

| Variant | protein stability index |
| --- | --- |
| Y10F | 4.28 |
| Y10S | 3.9 |
| Y10D | 3.36 |
| Y10N | 3.91 |
| Y10G | 3.32 |
| Y10I | 3.15 |
| Y10M | 3.53 |
| Y10C | 3.23 |
| Y10K | 3.66 |
| Y10Q | 3.45 |
| Y10H | 3.6 |
| Y10R | 2.99 |
| Y10L | 3.02 |
| Y10A | 4.5 |
| Y10V | 3.49 |
| Y10P | 3.72 |
| Y10E | 3.26 |
| Y10T | 3.56 |
| Y5F | 4.07 |
| Y5N | 4.11 |
| Y5I | 4.41 |
| Y5W | 4.68 |
| Y5Q | 4.12 |
| Y5D | 4.24 |

| Variant | protein stability index |
| --- | --- |
| Y5G | 4.14 |
| Y5C | 4.01 |
| Y5L | 4.25 |
| Y5E | 4.57 |
| Y5A | 4.05 |
| Y5M | 4.9 |
| Y5S | 4.37 |
| Y5V | 4.41 |
| Y5H | 3.69 |
| Y5K | 3.21 |
| Y5T | 4.14 |
| Y5R | 3.52 |
| Y5P | 3.84 |
| C8N | 3.65 |
| C8G | 3.81 |
| C8H | 3.46 |
| C8K | 3.54 |
| C8S | 3.68 |
| C8F | 3.17 |
| C8T | 4.23 |
| C8R | 3.12 |
| C8V | 3.81 |
| C8Y | 3.43 |
| C8A | 3.88 |

| Variant | protein stability index |
| --- | --- |
| C8L | 3.56 |
| C8E | 4.37 |
| C8D | 4.24 |
| C8Q | 3.7 |
| C8W | 2.96 |
| C8I | 3.13 |
| C8M | 3.63 |
| C8P | 3.72 |
| D2F | 3.52 |
| D2H | 2.78 |
| D2I | 2.38 |
| D2N | 4.26 |
| D2V | 2.37 |
| D2C | 2.33 |
| D2A | 2.46 |
| D2T | 2.33 |
| D2P | 3.64 |
| D2S | 2.59 |
| D2W | 3.42 |
| D2L | 2.69 |
| D2M | 3.49 |
| D2G | 3.96 |
| D2E | 4.93 |
| D2Q | 3.55 |

| Variant | protein stability index |
| --- | --- |
| D2Y | 3.71 |
| D2R | 4.07 |
| D2K | 4.37 |
| D4C | 3.48 |
| D4A | 4.26 |
| D4Y | 3.59 |
| D4S | 4.49 |
| D4M | 3.8 |
| D4W | 3.5 |
| D4G | 4.28 |
| D4I | 4.5 |
| D4V | 3.84 |
| D4T | 4.08 |
| D4H | 4.5 |
| D4P | 4.08 |
| D4E | 4.21 |
| D4L | 3.59 |
| D4N | 4.22 |
| D4F | 3.72 |
| D4K | 4.11 |
| D4R | 3.53 |
| D4Q | 4.42 |
| I6Y | 3.23 |
| I6Q | 4.03 |

| Variant | protein stability index |
| --- | --- |
| I6G | 3.29 |
| I6M | 3.42 |
| I6E | 3.5 |
| I6R | 3.63 |
| I6P | 3.37 |
| I6W | 2.8 |
| I6K | 3.71 |
| I6N | 3.55 |
| I6D | 3.6 |
| I6V | 4.14 |
| I6A | 3.58 |
| I6T | 3.56 |
| I6H | 3.71 |
| I6F | 3.29 |
| I6L | 3.27 |
| I6S | 3.44 |
| I6C | 3.7 |
| Q7I | 4.76 |
| Q7K | 3.94 |
| Q7A | 3.27 |
| Q7R | 3.79 |
| Q7P | 2.88 |
| Q7N | 2.89 |
| Q7C | 3.57 |

| Variant | protein stability index |
| --- | --- |
| Q7G | 2.54 |
| Q7L | 3.48 |
| Q7F | 3.15 |
| Q7E | 3.87 |
| Q7V | 4.7 |
| Q7T | 4.57 |
| Q7M | 3.33 |
| Q7S | 3.27 |
| Q7W | 2.83 |
| Q7H | 2.76 |
| Q7D | 2.64 |
| Q7Y | 3.77 |
| P3I | 3.99 |
| P3Q | 3.86 |
| P3T | 4.65 |
| P3D | 4.01 |
| P3A | 4.57 |
| P3S | 4.39 |
| P3E | 4.63 |
| P3L | 3.55 |
| P3H | 3.81 |
| P3K | 4.63 |
| P3N | 4.46 |
| P3W | 3.5 |

| Variant | protein stability index |
| --- | --- |
| P3Y | 4.24 |
| P3C | 3.49 |
| P3V | 4.25 |
| P3G | 4.67 |
| P3M | 4.4 |
| P3F | 4.02 |
| P3R | 4.49 |
| P9Q | 3.14 |
| P9W | 2.52 |
| P9F | 2.18 |
| P9M | 2.39 |
| P9N | 2.75 |
| P9C | 2.59 |
| P9L | 2.09 |
| P9D | 3.09 |
| P9G | 2.54 |
| P9A | 2.38 |
| P9R | 2.58 |
| P9H | 2.83 |
| P9E | 3.11 |
| P9I | 2.29 |
| P9V | 2.44 |
| P9K | 2.58 |
| P9T | 2.55 |

| Variant | protein stability index |
| --- | --- |
| P9S | 2.95 |
| P9Y | 2.07 |
| Y1E | 5.12 |
| Y1G | 4.17 |
| Y1M | 4.24 |
| Y1N | 4.45 |
| Y1C | 3.69 |
| Y1T | 4.79 |
| Y1V | 4.4 |
| Y1I | 4.72 |
| Y1Q | 4.55 |
| Y1P | 4.54 |
| Y1S | 4.54 |
| Y1W | 4.69 |
| Y1D | 4.86 |
| Y1L | 4.6 |
| Y1K | 4.41 |
| Y1A | 4.73 |
| Y1F | 3.42 |
| Y1H | 4.29 |
| Y1R | 3.98 |

From the supplement of paper PMC10567573
